Measurements taken from patent publication US20260133192A1 (FRED HUTCHINSON CANCER CENTER, published 2026).
Blank lines part the entries; values can stand above or below the binder they belong to. *1 amine or outer side, *2 acyl side, *3 side chain or, on linkers, in order; H or OH if unused. Where no end group is shown, it is not given here. [ ]: non-standard residue; d: D form. βAsp = O=C(O)[C@H](CC(=O)[*:2])N[*:1]; Cit = NC(=O)NCCC[C@H](N)C(=O)O

Experiments:
Test in all cases: B cells sorted with PTM-peptide tetramers; PTM epitope to which the cloned antibody binds, Table 7
[1] = target: T1, TFRC-4 PTM peptide LNDRVM{Cit}VEYC (human, also: biotinylated, site not given here)
T1 construct: Synthetic citrullinated fragment of TFRC; biotinylated on streptavidin tetramers for B cell sorting
T1 peptide: LNDRVM[Cit]VEYC
Excerpt: (§1) Once the immunogenic PTM peptides targeted by autoantibodies were identified, PTM-specific autoantibodies were isolated directly from SCLC patients and sequenced (FIG. 13). To accomplish this, PTM-binding B cells were enriched from SCLC patient peripheral blood mononuclear cells using PTM-peptide tetramers. PTM-peptide tetramers were created by combining PE- or APC-labeled magnetic tetramers containing streptavidin cores with biotinylated PTM peptides identified to bind more AAb from SCLC patient plasma compared to wildtype peptides. Five different PTM peptides were included in each PTM-tetramer; 5 citrullinated TFRC peptides were conjugated to PE-tetramers and 5 isoaspartylated peptides (3 CA9, 1 PLD3 and 1 SPINK1) were conjugated to APC-tetramers. These PTM-tetramers were then incubated with pooled peripheral blood mononuclear cells (PBMCs) from 3 different SCLC patients and tetramer bound cells were isolated with magnetic microbeads. This PTM-tetramer ‘enriched’ fraction was labeled with fluorescent antibodies and fluorescence activated cell sorted (FACS) into single cells. PTM-tetramer+ B cells were sorted, heavy and light chain antibody sequences from each B cell were amplified by RT-PCR, and heavy and light chain pairs were successfully sequenced. These sequences were cloned into human IgG expression vectors for antibody production and are shown in Table 7 with the location of the CRs underlined. The sequences of the CDRs were determined using the ImMunoGeneTics (IMGT) information system domain gap align.

[2] = target: T2, CA9-3 PTM peptide GV{isoAsp}SSPR (human)
T2 construct: Synthetic isoaspartylated fragment of CA9
T2 peptide: GV[βAsp]SSPR
Excerpt: as §1

[3] = target: T3, TFRC-1 PTM peptide DFPAA{Cit}RLYW (human)
T3 construct: Synthetic citrullinated fragment of TFRC
T3 peptide: DFPAA[Cit]RLYW
Excerpt: as §1

[4] = target: T4, TFRC-2 PTM peptide DFPAAR{Cit}LYW (human)
T4 construct: Synthetic citrullinated fragment of TFRC
T4 peptide: DFPAAR[Cit]LYW
Excerpt: as §1

[5] = target: T5, TFRC-5 PTM peptide LND{Cit}VMRVC (human, also: biotinylated, site not given here)
T5 construct: Synthetic citrullinated fragment of TFRC; biotinylated on tetramers for B cell sorting
T5 peptide: LND[Cit]VMRVC
Excerpt: as §1

[6] = target: T6, SPINK1-1 PTM peptide YNEL{iso-Asp}GCTKI (human)
T6 construct: Synthetic isoaspartylated fragment of SPINK1
T6 peptide: YNEL[βAsp]GCTKI
Excerpt: as §1

binding result [2]: binds
B2: 1B3 (antibody, V domains shown)
VH: QVQLVESGGGLVQPGGSLRLSCAASGFTFSSYWMSWVRQAPGKGLEWVANIKQDGSEEYYVDSVKGRFTISRDNAKSLLYLQMNSLRPEDTAVYYCAGDSLPSSGWEGYFQHWGQGTLVTVSS
VL: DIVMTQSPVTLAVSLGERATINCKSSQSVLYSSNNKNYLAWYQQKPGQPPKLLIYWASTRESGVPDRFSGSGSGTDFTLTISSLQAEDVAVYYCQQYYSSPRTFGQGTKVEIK

binding result [3]: binds
binding result [4]: binds
B3: 2H5 (antibody, V domains shown)
VH: EVQLLESGGGLAQPGGSLRLSCGASGFTFSSHALSWVRLAPGKGLEWVSAISGSGDRTYYADSVKGRFTISRDNSKNMLYLQMNSLRGEDTAVYYCAKEATESYATSWGQGTLVTVSS
VL: DIQMTQSPSTLSASVGDRVTITCRASQSISSWLAWYQQKPGKAPNLLISKAFSVESGVPSTFSGSGSGTEFTLTISSLQPRDSASYYCQQYDSGWTFGQGTKVEIK

Continued, binder first:

B1: 2D2 antibody (antibody, V domains shown)
VH: QVQLVESGGGVVQPGRSLRLSCAASGFTFNSFALMWVRQAPGKGLEWVAVISNDGSNTYYADSVKGRFTISRDNSKNTLYLQMNSLRAEDTAVYYCARGSQYYGSGRYSRKQFDYWGQGTMVTVSS
VL: DIQMTQSPLSLPVTPGEPASISCRSSQSLLHADDGNTYLDWYLQKPGQSPQLLIYTLSSRASGVPDRFSGSGSGTNFTLRISRVEAEDVGVYYCMQRIESPLTFGGGTKVEIK
notes: From B cells of SCLC patient PBMCs; Labeled with CF770 for the in vivo imaging; also called 770-labeled 2D2 antibody
binding result [1]: binds

B4: 2H8 (antibody, V domains shown)
VH: QVQLVESGGGVVQPGRSLRLSCAASGFTFSTYGMHWVRQAPGKGLQWVAQISNDGSSKYYGDSVKGRFTISRDNSKNTLYLQMNSLRVEDTGVYYCASSGSSGTWGQGTQVTVSS
VL: EIVLTQSPATLFLFPGERVTFSCRASQSVNNYLAWYQQKPGQAPRLLIYDVSNRATGIPARFSGSGSGTDFTLTISSLDPEDFAVYFCQQRSNWPLTFGGGTKVEIK
binding result [5]: binds

B5: 1A6 (antibody, V domains shown)
VH: QAGLLESGGGVVQPGRSLRLSCAASGFTFSSYGMHWVRQAPGKGLEWVAVIWYDGSNKYYADSVKGRFTISRDNSKNTLYLQMNSLRAEDTAVYYCARGGGITGTVSRKQGMDVWGQGTLVTVSS
VL: AIQLTQSPSSLSASVGDRVTITCRASQGISSYLAWYQQKPGKAPKLLMYGASTLQSGVPSRFSGSGSGTDFTLTISSLQPEDFATYYCQQVNSYPLTFGGGTKVEIK
binding result [6]: binds
